T1: mouse IL-5Rα, recombinant extracellular domain (mouse, UniProt P21183 18-339)
T1 construct: extracellular domain; also called animal IL-5Rα
T1 sequence (looked up): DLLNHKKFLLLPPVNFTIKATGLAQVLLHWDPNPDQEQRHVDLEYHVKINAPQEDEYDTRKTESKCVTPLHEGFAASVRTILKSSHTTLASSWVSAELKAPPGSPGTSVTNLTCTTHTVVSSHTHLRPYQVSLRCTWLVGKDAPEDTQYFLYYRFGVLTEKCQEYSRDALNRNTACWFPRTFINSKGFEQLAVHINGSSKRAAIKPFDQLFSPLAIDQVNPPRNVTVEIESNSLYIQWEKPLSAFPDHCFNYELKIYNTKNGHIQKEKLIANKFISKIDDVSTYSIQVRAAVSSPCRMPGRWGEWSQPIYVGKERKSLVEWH

T2: human IL-5Rα (interleukin 5 receptor α-chain), recombinant extracellular domain (human, UniProt Q01344 21-342)
T2 construct: extracellular domain; also called IL-5Ra; human antigen; not shown: C-terminal tag (EPEA, Fc or H6F)
T2 sequence (looked up): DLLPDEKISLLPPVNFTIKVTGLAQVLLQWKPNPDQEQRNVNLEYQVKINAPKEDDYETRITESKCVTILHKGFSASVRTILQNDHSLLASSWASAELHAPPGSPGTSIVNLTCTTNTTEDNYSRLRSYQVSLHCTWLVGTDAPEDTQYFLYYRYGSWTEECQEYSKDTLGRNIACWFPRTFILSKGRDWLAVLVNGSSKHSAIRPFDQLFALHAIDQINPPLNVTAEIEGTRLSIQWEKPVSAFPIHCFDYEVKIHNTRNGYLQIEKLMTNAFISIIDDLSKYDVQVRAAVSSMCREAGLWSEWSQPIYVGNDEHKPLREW

T3: cynomolgus monkey IL-5Rα, recombinant extracellular domain (cynomolgus monkey, UniProt C3VEW9 21-342)
T3 construct: extracellular domain; also called macaque IL-5Ra; cynomolgus monkey antigen (IL-5Rα)
T3 sequence: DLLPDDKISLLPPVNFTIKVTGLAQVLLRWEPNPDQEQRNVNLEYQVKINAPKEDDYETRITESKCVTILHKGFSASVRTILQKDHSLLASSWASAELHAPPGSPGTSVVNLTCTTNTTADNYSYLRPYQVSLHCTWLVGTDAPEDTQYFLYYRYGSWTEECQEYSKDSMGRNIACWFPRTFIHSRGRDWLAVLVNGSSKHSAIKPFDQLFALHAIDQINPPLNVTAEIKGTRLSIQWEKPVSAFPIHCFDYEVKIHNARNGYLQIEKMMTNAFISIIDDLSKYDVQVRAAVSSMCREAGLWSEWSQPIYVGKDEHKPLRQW


What was measured:
[1] = target: T1, mouse IL-5Rα, recombinant extracellular …; test: BLI (Octet RED 384), antibody immobilised on AR2G sensors, antigen in solution
[2] = target: T2, human IL-5Rα (interleukin 5 receptor …); test: BLI (Octet RED 384), human IL-5Rα immobilised on AR2G sensors, full-length antibody in solution, 30 °C, 1:1 global model
Method: Experimental study of binding affinity of antibodies to human IL-5Rα antigen was performed on Forte Bio Octert RED 384. Human IL-5Rα at a concentration of 20 μg/ml was immobilized on the surface of AR2G sensors (ForteBio) according to a standard protocol and manufacturer's instructions. Analysis was conducted at 30° C. using PBS comprising 0.1% Tween 20 and 0.1% BSA as a working buffer. After baseline recording, the sensors were immersed into wells containing antibody solution for 300 seconds, where the complex was associated. Complex dissociation in buffer solution was then detected for 600 seconds.
Binding curves, after subtracting a reference signal, were analyzed using Octet Data Analysis (Version 9.0) software in accordance with the standard procedure and using 1:1 Global interaction model. Anti-IL-5Rα antibodies specifically bind to human antigen with high affinity. Table A (FIG. 11, 12, 13)

[3] = target: IL-5Rα stably expressed on CHO-IL-5R cells; test: cell-based or functional assay
[4] = target: T3, cynomolgus monkey IL-5Rα, recombinant …; test: BLI (Octet RED 384), antibody immobilised on AR2G sensors, cynomolgus IL-5Rα in solution, 30 °C, 1:1 global model
Method: Experimental study of binding affinity of antibodies to animal IL-5Rα antigen was performed on Forte Bio Octert RED 384. Antibodies at a concentration of 20 μg/ml were immobilized on the surface of AR2G sensors (Forte Bio) according to a standard protocol and manufacturer's instructions. Analysis was conducted at 30° C. using PBS comprising 0.1% Tween 20 and 0.1% BSA as a working buffer. After baseline recording, the sensors were immersed into wells containing antigen solution (animal IL-5Rα) for 300 seconds, where the complex was associated. Complex dissociation in buffer solution was then detected for 600 seconds.
Binding curves, after subtracting a reference signal, were analyzed using Octet Data Analysis (Version 9.0) software in accordance with the standard procedure and using 1:1 Global interaction model. Anti-IL-5Rα antibodies specifically bind to cynomolgus monkey antigen. Table B. FIG. 16,17,18.

Sequence of IL-5Rα stably expressed on CHO-IL-5R cells (Q01344 whole entry): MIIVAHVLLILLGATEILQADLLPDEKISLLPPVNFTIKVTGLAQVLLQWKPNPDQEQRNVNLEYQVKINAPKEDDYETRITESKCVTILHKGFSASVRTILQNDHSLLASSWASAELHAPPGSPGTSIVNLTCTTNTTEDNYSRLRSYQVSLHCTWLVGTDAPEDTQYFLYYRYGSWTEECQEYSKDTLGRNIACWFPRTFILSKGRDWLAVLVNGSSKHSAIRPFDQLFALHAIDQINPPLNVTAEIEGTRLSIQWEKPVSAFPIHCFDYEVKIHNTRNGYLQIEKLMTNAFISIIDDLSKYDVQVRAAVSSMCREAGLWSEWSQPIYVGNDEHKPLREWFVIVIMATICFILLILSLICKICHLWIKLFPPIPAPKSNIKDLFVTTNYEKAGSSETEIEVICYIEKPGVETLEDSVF

| Binder | binding result [1] | Kd [2] | ADCC efficacy (EC50) on CHO-IL-5R cells with PBMC, relative to Benralizumab [3] | Kd [4] |
| --- | --- | --- | --- | --- |
| BCD133-03-020 (antibody, human IgG1, kappa) heavy: not shown light: QAGLTQPPSVSAAPGQRVTISCSGSRSNIGSGYDVHWYQQVPGTAPKLLIFDDNNRPSGVPDRFSGSKSGTSASLAITGLQAEDEADYYCQSYDSSLSGHVVFGGGTKLTVLRTVAAPSVFIFPPSDEQLKSGTASVVCLLNNFYPREAKVQWKVDNALQSGNSQESVTEQDSKDSTYSLSSTLTLSKADYEKHKVYACEVTHQGLSSPVTKSFNRGEC | no binding | 0.667 nM | 1.6 times (against Benralizumab) | 12.2 nM |
| BCD133-03-021 (antibody, human IgG1, kappa, V domains shown) VH: QVQLQESGGGLVQPGGSLRLSCAASGFTFSNYAMSWVRQAPGKGLEWVSAINSGGKSTNYADSVKGRFTISRDNAKNTLYLQMNSLRAEDTAVYYCADYATNYGVPYFGSWGQGTMVTVSS VL: QSVLTQPPSVSAAPGQRVTISCSGSRSNIGSGYDVHWYQQLPGTAPKLLIYDDNNRPSGVPDRFSGSKSGTSASLAITGLQAEDEADYYCQSYDSSLSGHVVFGGGTKLTVLR | no binding | 0.0224 nM | 1.6 times (against Benralizumab) | 16.8 nM |
| BCD133-03-002 (antibody, human IgG1, kappa) heavy: not shown light: QAGLTQPPSVSAAPGQRVTISCSGSRSNIGSGYDVHWYQQVPGTAPKLLIFDDNNRPSGVPDRFSGSKSGTSASLAITGLQAEDEADYYCQSYDSSLSGHVVFGGGTKLTVLRTVAAPSVFIFPPSDEQLKSGTASVVCLLNNFYPREAKVQWKVDNALQSGNSQESVTEQDSKDSTYSLSSTLTLSKADYEKHKVYACEVTHQGLSSPVTKSFNRGEC | no binding | 0.527 nM | 1.6 times (against Benralizumab) | 5.53 nM |

Source: US20200291121A1 (JOINT STOCK COMPANY BIOCAD, published 2020)
